Assay results from patent US20170362301A1 (Janssen / Centocor, published 2017).
Numbering of substitutions follows the chain as printed. Numbers in names are those of the source. Where “and” joins values, the source holds several entries; their conditions need not be identical. Equal entries are not always repeated.

B1: P53A1R5-17 (designed binder)
chain: LPAPKNLVVSEVTEDSLRLSWADPHGFYDSFLIQYQESEKVGEAINLTVPGSERSYDLTGLKPGTEYTVSIYGVHNVYKDTNMRGLPLSAEFTT
B2: P54AR4-83v2 T68C, NEM conjugate (designed binder)
chain: B1 chain with L17A, A22D, H25W, G26A, D29E, N46V, T68C, E91I
modifications: NEM on Cys 68
notes: His-tagged
B3: P54AR4-83v2 S10C, NEM conjugate (designed binder)
chain: B1 chain with S10C, L17A, A22D, H25W, G26A, D29E, N46V, E91I
modifications: NEM on Cys 10
notes: His-tagged
B4: P54AR4-83v2 P87C, NEM conjugate (designed binder)
chain: B1 chain with L17A, A22D, H25W, G26A, D29E, N46V, P87C, E91I
modifications: NEM on Cys 87
notes: His-tagged
B5: P54AR4-83v2 Y72C, NEM conjugate (designed binder)
chain: B1 chain with L17A, A22D, H25W, G26A, D29E, N46V, Y72C, E91I
modifications: NEM on Cys 72
notes: His-tagged
B6: P54AR4-83v2 V49C, NEM conjugate (designed binder)
chain: B1 chain with L17A, A22D, H25W, G26A, D29E, N46V, V49C, E91I
modifications: NEM on Cys 49
notes: His-tagged
B7: P54AR4-83v2 T93C, NEM conjugate (designed binder)
chain: B1 chain with L17A, A22D, H25W, G26A, D29E, N46V, E91I, T93C
modifications: NEM on Cys 93
notes: His-tagged
B8: P54AR4-83v2 V12C, NEM conjugate (designed binder)
chain: B1 chain with V12C, L17A, A22D, H25W, G26A, D29E, N46V, E91I
modifications: NEM on Cys 12
notes: His-tagged
B9: P54AR4-83v2 T48C, NEM conjugate (designed binder)
chain: B1 chain with L17A, A22D, H25W, G26A, D29E, N46V, T48C, E91I
modifications: NEM on Cys 48
notes: His-tagged
B10: P54AR4-83v2 R84C, NEM conjugate (designed binder)
chain: B1 chain with L17A, A22D, H25W, G26A, D29E, N46V, R84C, E91I
modifications: NEM on Cys 84
notes: His-tagged
B11: P54AR4-83v2 S55C, NEM conjugate (designed binder)
chain: B1 chain with L17A, A22D, H25W, G26A, D29E, N46V, S55C, E91I
modifications: NEM on Cys 55
notes: His-tagged
B12: P54AR4-83v2 Q34C, NEM conjugate (designed binder)
chain: B1 chain with L17A, A22D, H25W, G26A, D29E, Q34C, N46V, E91I
modifications: NEM on Cys 34
notes: His-tagged
B13: P54AR4-83v2 Y28C, NEM conjugate (designed binder)
chain: B1 chain with L17A, A22D, H25W, G26A, Y28C, D29E, N46V, E91I
modifications: NEM on Cys 28
notes: His-tagged
B14: P54AR4-83v2 P63C, NEM conjugate (designed binder)
chain: B1 chain with L17A, A22D, H25W, G26A, D29E, N46V, P63C, E91I
modifications: NEM on Cys 63
notes: His-tagged
B15: P54AR4-83v2 V41C, NEM conjugate (designed binder)
chain: B1 chain with L17A, A22D, H25W, G26A, D29E, V41C, N46V, E91I
modifications: NEM on Cys 41
notes: His-tagged
B16: P54AR4-83v2 V77C, NEM conjugate (designed binder)
chain: B1 chain with L17A, A22D, H25W, G26A, D29E, N46V, V77C, E91I
modifications: NEM on Cys 77
notes: His-tagged
B17: P54AR4-83v2 S20C, NEM conjugate (designed binder)
chain: B1 chain with L17A, S20C, A22D, H25W, G26A, D29E, N46V, E91I
modifications: NEM on Cys 20
notes: His-tagged
B18: P54AR4-83v2 R54C, NEM conjugate (designed binder)
chain: B1 chain with L17A, A22D, H25W, G26A, D29E, N46V, R54C, E91I
modifications: NEM on Cys 54
notes: His-tagged
B19: P54AR4-83v2 T81C, NEM conjugate (designed binder)
chain: B1 chain with L17A, A22D, H25W, G26A, D29E, N46V, T81C, E91I
modifications: NEM on Cys 81
notes: His-tagged
B20: P54AR4-83v2 S38C, NEM conjugate (designed binder)
chain: B1 chain with L17A, A22D, H25W, G26A, D29E, S38C, N46V, E91I
modifications: NEM on Cys 38
notes: His-tagged
B21: P54AR4-83v2 S30C, NEM conjugate (designed binder)
chain: B1 chain with L17A, A22D, H25W, G26A, D29E, S30C, N46V, E91I
modifications: NEM on Cys 30
notes: His-tagged
B22: P54AR4-83v2 V74C, NEM conjugate (designed binder)
chain: B1 chain with L17A, A22D, H25W, G26A, D29E, N46V, V74C, E91I
modifications: NEM on Cys 74
notes: His-tagged
B23: P54AR4-83v2 T59C, NEM conjugate (designed binder)
chain: B1 chain with L17A, A22D, H25W, G26A, D29E, N46V, T59C, E91I
modifications: NEM on Cys 59
notes: His-tagged
B24: P54AR4-83v2 W25C, NEM conjugate (designed binder)
chain: B1 chain with L17A, A22D, H25C, G26A, D29E, N46V, E91I
modifications: NEM on Cys 25
notes: His-tagged
B25: P54AR4-83v2 S16C, NEM conjugate (designed binder)
chain: B1 chain with S16C, L17A, A22D, H25W, G26A, D29E, N46V, E91I
modifications: NEM on Cys 16
notes: His-tagged
B26: P54AR4-83v2 V46C, NEM conjugate (designed binder)
chain: B1 chain with L17A, A22D, H25W, G26A, D29E, N46C, E91I
modifications: NEM on Cys 46
notes: His-tagged
B27: P54AR4-83v2 V9C, NEM conjugate (designed binder)
chain: B1 chain with V9C, L17A, A22D, H25W, G26A, D29E, N46V, E91I
modifications: NEM on Cys 9
notes: His-tagged
B28: P54AR4-83v2 T13C, NEM conjugate (designed binder)
chain: B1 chain with T13C, L17A, A22D, H25W, G26A, D29E, N46V, E91I
modifications: NEM on Cys 13
notes: His-tagged
B29: P54AR4-83v2 Y78C, NEM conjugate (designed binder)
chain: B1 chain with L17A, A22D, H25W, G26A, D29E, N46V, Y78C, E91I
modifications: NEM on Cys 78
notes: His-tagged
B30: P54AR4-83v2 S89C, NEM conjugate (designed binder)
chain: B1 chain with L17A, A22D, H25W, G26A, D29E, N46V, S89C, E91I
modifications: NEM on Cys 89
notes: His-tagged
B31: P54AR4-83v2 S52C, NEM conjugate (designed binder)
chain: B1 chain with L17A, A22D, H25W, G26A, D29E, N46V, S52C, E91I
modifications: NEM on Cys 52
notes: His-tagged
B32: P54AR4-83v2 S70C, NEM conjugate (designed binder)
chain: B1 chain with L17A, A22D, H25W, G26A, D29E, N46V, S70C, E91I
modifications: NEM on Cys 70
notes: His-tagged
B33: P54AR4-83v2 V8C, NEM conjugate (designed binder)
chain: B1 chain with V8C, L17A, A22D, H25W, G26A, D29E, N46V, E91I
modifications: NEM on Cys 8
notes: His-tagged
B34: P54AR4-83v2 R18C, NEM conjugate (designed binder)
chain: B1 chain with L17A, R18C, A22D, H25W, G26A, D29E, N46V, E91I
modifications: NEM on Cys 18
notes: His-tagged
B35: 83v2cy5-mal-PEG4-MMAE (designed binder)
chain: MLPAPKNLVVSEVTEDSARLSWDDPWAFYESFLIQYQESEKVGEAIVLTVPGSERSYDLTGLKPGTEYTVSIYGVHNVYKDTNMRGLPLSAIFTTGGHHHHHHC
modifications: mal-PEG4-MMAE on the cysteine
B36: 83v2cy5-mal-PEG4-MMAF (designed binder)
chain: B35 chain
modifications: mal-PEG4-MMAF on the cysteine
B37: 83v2cy5-mal-PEG4-VK-MMAF (designed binder)
chain: B35 chain
modifications: mal-PEG4-VK-MMAF on the cysteine
B38: 83v2cy5-mal-PEG4-VK-MMAE (designed binder)
chain: B35 chain
modifications: mal-PEG4-VK-MMAE on the cysteine
B39: 83v2cy5-mal-PEG4-VC-MMAE (designed binder)
chain: B35 chain
modifications: mal-PEG4-VC-MMAE on the cysteine
B40: 83v2cy5-mal-PEG4-VC-MMAF (designed binder)
chain: B35 chain
modifications: mal-PEG4-VC-MMAF on the cysteine

Key:
[1] = target: T1, EGFR on cells (A431, NCI-H292, NCI-H322, NCI-H441) (human, UniProt P00533 25-1210); test: cell-based or functional assay
[2] = target: T2, EGFR (form in the assay not stated) (human, UniProt P00533 25-645, limits assumed); test: ELISA, NEM conjugate 10 nM
[3] = target: T2, EGFR (form in the assay not stated); test: ELISA, NEM conjugate 500 nM
[4] = target: T2, EGFR (form in the assay not stated); test: ELISA, NEM conjugate 100 nM
[5] = target: T1, EGFR on cells (A431, NCI-H292, …); test: cell-based or functional assay; remark: listed apart in the source

Binder | Phospho-EGFR IC50, A431 cells [1] | binding ratio vs parent P54AR4-83v2 [2] | binding ratio vs parent P54AR4-83v2 [3] | binding ratio vs parent P54AR4-83v2 [4] | IC50 A431 (nM), cell viability [5] | IC50 H1537 (nM), cell viability [5]
B1 | > 2500 nM |  |  |  |  | 
B2 |  | 0.83 ratio | 0.95 ratio | 1.04 ratio |  | 
B3 |  | 0.83 ratio | 0.96 ratio | 1.07 ratio |  | 
B4 |  | 0.73 ratio | 0.91 ratio | 0.93 ratio |  | 
B5 |  | 0.93 ratio | 0.93 ratio | 1 ratio |  | 
B6 |  | 0.96 ratio | 0.98 ratio | 1.01 ratio |  | 
B7 |  | 0.96 ratio | 1.04 ratio | 1.05 ratio |  | 
B8 |  | 0.87 ratio | 0.93 ratio | 1.06 ratio |  | 
B9 |  | 0.88 ratio | 0.93 ratio | 1 ratio |  | 
B10 |  | 0.91 ratio | 0.98 ratio | 1.04 ratio |  | 
B11 |  | 0 ratio | 0.11 ratio | 0 ratio |  | 
B12 |  | 0.89 ratio | 0.94 ratio | 1.03 ratio |  | 
B13 |  | 0 ratio | 0.09 ratio | 0.01 ratio |  | 
B14 |  | 0.95 ratio | 0.92 ratio | 1.02 ratio |  | 
B15 |  | 0.92 ratio | 0.95 ratio | 0.99 ratio |  | 
B16 |  | 0.03 ratio | 0.03 ratio | 0 ratio |  | 
B17 |  | 0.81 ratio | 0.91 ratio | 1.05 ratio |  | 
B18 |  | 0.89 ratio | 0.93 ratio | 1.01 ratio |  | 
B19 |  | 0.5 ratio | 1.02 ratio | 0.9 ratio |  | 
B20 |  | 0.8 ratio | 0.82 ratio | 0.93 ratio |  | 

Binder | Phospho-EGFR IC50, A431 cells [1] | binding ratio vs parent P54AR4-83v2 [2] | binding ratio vs parent P54AR4-83v2 [3] | binding ratio vs parent P54AR4-83v2 [4] | IC50 A431 (nM), cell viability [5] | IC50 H1537 (nM), cell viability [5]
B21 |  | 0.9 ratio | 0.9 ratio | 1.02 ratio |  | 
B22 |  | 0.76 ratio | 0.95 ratio | 1.01 ratio |  | 
B23 |  | 0.83 ratio | 0.93 ratio | 1.04 ratio |  | 
B24 |  | 0.38 ratio | 0.7 ratio | 0.64 ratio |  | 
B25 |  | 0.88 ratio | 0.63 ratio | 1.05 ratio |  | 
B26 |  | 0.61 ratio | 0.9 ratio | 1.01 ratio |  | 
B27 |  | 0.94 ratio | 0.93 ratio | 1.03 ratio |  | 
B28 |  | 0.87 ratio | 0.9 ratio | 1.04 ratio |  | 
B29 |  | 0.31 ratio | 0.68 ratio | 0.63 ratio |  | 
B30 |  | 0.97 ratio | 1.04 ratio | 1.02 ratio |  | 
B31 |  | 0.78 ratio | 0.93 ratio | 1.03 ratio |  | 
B32 |  | 0.86 ratio | 0.93 ratio | 1.01 ratio |  | 
B33 |  | 0.96 ratio | 0.9 ratio | 1.03 ratio |  | 
B34 |  | 0.86 ratio | 0.94 ratio | 1.05 ratio |  | 
B35 |  |  |  |  | > 500 nM | 
B36 |  |  |  |  | > 1000 nM | 
B37 |  |  |  |  | 3.9 nM | 
B38 |  |  |  |  | 19.6 nM | 
B39 |  |  |  |  | 315 nM | 
B40 |  |  |  |  | 1.6 nM | 1.19 nM and 1.05 nM
